Reference: patent US20260167699A1 (Chugai, published 2026)
Substitutions are numbered along the chain they refer to.

B1: GpH7-A5/GpH7-B3 variant P271_10E/GpL16-k0 (antibody, human IgG1, kappa)
heavy 1: not shown
heavy 2: not shown
light: DIVMTQSPLSLPVTPGEPASISCQASESLVHSNRNTYLHWYLQKPGQSPQLLIYKVSNRFSGVPDRFSGSGSGTDFTLKISRVEAEDVGVYYCSQNTHVPPTFGQGTKVEIERTVAAPSVFIFPPSDEQLKSGTASVVCLLNNFYPREAKVQWKVDNALQSGNSQESVTEQDSKDSTYSLSSTLTLSKADYEKHKVYACEVTHQGLSSPVTKSFNRGEC
notes: heterodimerized IgG1, one H chain mutated; also called He Ab; copies: 1 + 1 + 2
B2: GpH7-A5/GpH7-B3 variant Q295_08L/GpL16-k0 (antibody, human IgG1, kappa)
heavy 1: not shown
heavy 2: not shown
light: B1 light
notes: as for B1
B3: GpH7-A5/GpH7-B3 variant Q295_15Y/GpL16-k0 (antibody, human IgG1, kappa)
heavy 1: not shown
heavy 2: not shown
light: B1 light
notes: as for B1
B4: GpH7-A5/GpH7-B3 variant Q295_04F/GpL16-k0 (antibody, human IgG1, kappa)
heavy 1: not shown
heavy 2: not shown
light: B1 light
notes: as for B1
B5: GpH7-A5/GpH7-B3 variant Q295_09D/GpL16-k0 (antibody, human IgG1, kappa)
heavy 1: not shown
heavy 2: not shown
light: B1 light
notes: as for B1
B6: GpH7-A5/GpH7-B3 variant P271_18N/GpL16-k0 (antibody, human IgG1, kappa)
heavy 1: not shown
heavy 2: not shown
light: B1 light
notes: as for B1
B7: GpH7-A5/GpH7-B3 variant P271_13S/GpL16-k0 (antibody, human IgG1, kappa)
heavy 1: not shown
heavy 2: not shown
light: B1 light
notes: as for B1
B8: GpH7-A5/GpH7-B3 variant Q295_05P/GpL16-k0 (antibody, human IgG1, kappa)
heavy 1: not shown
heavy 2: not shown
light: B1 light
notes: as for B1
B9: GpH7-A5/GpH7-B3 variant P271_19Q/GpL16-k0 (antibody, human IgG1, kappa)
heavy 1: not shown
heavy 2: not shown
light: B1 light
notes: as for B1
B10: GpH7-A5/GpH7-B3 variant Q295_07I/GpL16-k0 (antibody, human IgG1, kappa)
heavy 1: not shown
heavy 2: not shown
light: B1 light
notes: as for B1
B11: GpH7-A5/GpH7-B3 variant P271_12R/GpL16-k0 (antibody, human IgG1, kappa)
heavy 1: not shown
heavy 2: not shown
light: B1 light
notes: as for B1
B12: GpH7-A5/GpH7-B3 variant P271_11K/GpL16-k0 (antibody, human IgG1, kappa)
heavy 1: not shown
heavy 2: not shown
light: B1 light
notes: as for B1
B13: GpH7-A5/GpH7-B3 variant Q295_03V/GpL16-k0 (antibody, human IgG1, kappa)
heavy 1: not shown
heavy 2: not shown
light: B1 light
notes: as for B1
B14: GpH7-A5/GpH7-B3 variant Q295_13S/GpL16-k0 (antibody, human IgG1, kappa)
heavy 1: not shown
heavy 2: not shown
light: B1 light
notes: as for B1
B15: GpH7-A5/GpH7-B3 variant Q295_11K/GpL16-k0 (antibody, human IgG1, kappa)
heavy 1: not shown
heavy 2: not shown
light: B1 light
notes: as for B1
B16: GpH7-A5/GpH7-B3 variant Q295_06M/GpL16-k0 (antibody, human IgG1, kappa)
heavy 1: not shown
heavy 2: not shown
light: B1 light
notes: as for B1
B17: GpH7-A5/GpH7-B3 variant P271_20W/GpL16-k0 (antibody, human IgG1, kappa)
heavy 1: not shown
heavy 2: not shown
light: B1 light
notes: as for B1
B18: GpH7-A5/GpH7-B3 variant Q295_01G/GpL16-k0 (antibody, human IgG1, kappa)
heavy 1: not shown
heavy 2: not shown
light: B1 light
notes: as for B1
B19: GpH7-A5/GpH7-B3 variant Q295_10E/GpL16-k0 (antibody, human IgG1, kappa)
heavy 1: not shown
heavy 2: not shown
light: B1 light
notes: as for B1
B20: GpH7-A5/GpH7-B3 variant Q295_02A/GpL16-k0 (antibody, human IgG1, kappa)
heavy 1: not shown
heavy 2: not shown
light: B1 light
notes: as for B1
B21: GpH7-A5/GpH7-B3 variant Q295_14T/GpL16-k0 (antibody, human IgG1, kappa)
heavy 1: not shown
heavy 2: not shown
light: B1 light
notes: as for B1

What was measured:
Experiment in all cases: SPR; He Ab vs HeCon Ab (GpH7-A5/GpH7-B3/GpL16-k0)=100;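 also: surface plasmon resonance at 25 °C with the test antibody captured on a sensor chip via antigenic peptide, protein L or protein A/G and FcγR flowed over as analyte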
[1] = target: T1, FcγRIIa(H) extracellular domain, C-terminal His tag (human, UniProt P12318 34-217)
T1 construct: extracellular domain; also called 2aH
T1 sequence: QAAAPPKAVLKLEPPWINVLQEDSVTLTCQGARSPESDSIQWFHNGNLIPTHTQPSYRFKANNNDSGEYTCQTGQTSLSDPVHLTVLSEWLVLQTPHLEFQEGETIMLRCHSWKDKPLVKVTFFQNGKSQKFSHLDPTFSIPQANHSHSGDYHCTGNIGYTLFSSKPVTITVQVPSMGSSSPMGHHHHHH
Experimental: (§1) The antibody of interest was analyzed for its interaction with FcγR using a BiaCore™ T100, BiaCore™ A100, or BiaCore™ 4000 surface plasmon resonance system (GE Healthcare Japan Corp.). The running buffer used was HBS-EP+ (GE Healthcare Japan Corp.). The assay temperature was set to 25° C. The sensor chips used were: a chip prepared by immobilizing antigenic peptides onto Series S Sensor Chip CM5 (GE Healthcare Japan Corp.) by the amine coupling method; a chip prepared by immobilizing antigenic peptides biotinylated in advance onto Series S Sensor Chip SA (certified) (GE Healthcare Japan Corp.) through their interaction; a chip prepared by immobilizing protein L (ACTIGEN, BioVision, Inc.) onto Series S Sensor Chip CM5 (GE Healthcare Japan Corp.); and a chip prepared by immobilizing protein A/G (Thermo Fisher Scientific K.K.) onto Series S Sensor Chip CM5 (GE Healthcare Japan Corp.). The antibody of interest was captured onto any of these chips and allowed to interact with FcγR diluted with a running buffer. The antibody captured on the chip was washed off through the reaction of 10 mM glycine-HCl (pH 1.5) to regenerate the chip, which was repetitively used.

[2] = target: T2, FcγRIIb extracellular domain, C-terminal His tag (human, UniProt P31994 43-217)
T2 construct: extracellular domain; also called 2b
T2 sequence: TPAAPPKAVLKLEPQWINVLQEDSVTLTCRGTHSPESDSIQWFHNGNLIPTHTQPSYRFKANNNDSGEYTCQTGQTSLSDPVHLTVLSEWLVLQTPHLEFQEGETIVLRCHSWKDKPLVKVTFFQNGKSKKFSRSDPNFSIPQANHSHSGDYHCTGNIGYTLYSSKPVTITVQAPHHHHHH
Experimental: as §1

[3] = target: T3, FcγRIIIa extracellular domain, C-terminal His tag (human, UniProt P08637 17-208)
T3 construct: extracellular domain; also called 3a
Experimental: as §1

[4] = target: T4, FcγRIa extracellular domain, C-terminal His tag (human, UniProt P12314 16-292)
T4 construct: extracellular domain; also called 1a
Experimental: as §1

[5] = target: T5, FcγRIIa(R) extracellular domain, C-terminal His tag (human, UniProt P12318 34-217)
T5 construct: extracellular domain; also called 2aR
T5 sequence: T1 sequence with H134R
Experimental: as §1

T3 sequence (P08637 other isoform, or with tags, fused parts or gaps): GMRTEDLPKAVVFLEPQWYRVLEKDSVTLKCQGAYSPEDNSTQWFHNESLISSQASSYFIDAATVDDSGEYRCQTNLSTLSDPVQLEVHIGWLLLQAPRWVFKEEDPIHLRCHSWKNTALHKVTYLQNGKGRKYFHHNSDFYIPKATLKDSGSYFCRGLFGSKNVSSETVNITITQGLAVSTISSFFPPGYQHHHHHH
T4 sequence (P12314 other isoform, or with tags, fused parts or gaps): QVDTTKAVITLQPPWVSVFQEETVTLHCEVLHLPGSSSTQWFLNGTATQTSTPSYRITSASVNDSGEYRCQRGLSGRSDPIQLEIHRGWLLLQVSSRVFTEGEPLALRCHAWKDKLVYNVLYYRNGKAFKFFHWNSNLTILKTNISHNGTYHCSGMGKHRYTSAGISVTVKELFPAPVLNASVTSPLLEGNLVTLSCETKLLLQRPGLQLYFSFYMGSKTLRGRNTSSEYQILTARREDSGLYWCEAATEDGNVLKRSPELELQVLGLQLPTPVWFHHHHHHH

Binder | He/Con 2aH [1] | He/Con 2b [2] | He/Con 3a [3] | He/Con 1a [4] | He/Con 2aR [5]
B1 | 72.4% | 122% | 98.2% | 101% | 102%
B2 | 128% | 134% | 120% | 103% | 118%
B3 | 89.3% | 73.3% | 81.5% | 100% | 82%
B4 | 87.4% | 72.6% | 75.1% | 101% | 82.8%
B5 | 62.6% | 68.1% | 85.6% | 98.5% | 68.7%
B6 | 94.5% | 105% | 94% | 102% | 97.7%
B7 | 83.3% | 98.2% | 79.8% | 101% | 93.5%
B8 | 118% | 75.7% | 74.4% | 102% | 86.6%
B9 | 90.7% | 99.3% | 84.6% | 102% | 95.1%
B10 | 117% | 94.5% | 101% | 101% | 97.3%
B11 | 100% | 96.9% | 87.6% | 101% | 95.8%
B12 | 100% | 101% | 92.5% | 101% | 97.3%
B13 | 106% | 84.9% | 86.2% | 102% | 90.3%
B14 | 79.5% | 63.8% | 90.4% | 100% | 73%
B15 | 102% | 79% | 81.8% | 99.7% | 88.1%
B16 | 111% | 101% | 100% | 102% | 101%
B17 | 88.7% | 65.1% | 77.8% | 101% | 76.6%
B18 | 62.5% | 51.6% | 76.6% | 96.1% | 60.3%
B19 | 112% | 106% | 105% | 101% | 101%
B20 | 101% | 89.4% | 111% | 103% | 91.5%
B21 | 86.2% | 74.9% | 120% | 101% | 79.2%
